Source: US12528870B2, “Anti-c-Met antibody-drug conjugate and applications thereof” (REMEGEN CO., LTD., priority 2020, dated 2026)
Where two headings read alike, the source gives them in different places.

Legend:
c-Met-positive NSCLC = conditions: cited from earlier work
[1] = test system: advanced solid tumors / NSCLC; conditions: cited from earlier work
c-Met protein = c-Met protein (Homo sapiens, UniProt P08581); experiment: ELISA binding ability to c-Met antigen; conditions: c-Met protein coated at 2 μg/ml
c-Met protein, sequence (P08581 25-1390): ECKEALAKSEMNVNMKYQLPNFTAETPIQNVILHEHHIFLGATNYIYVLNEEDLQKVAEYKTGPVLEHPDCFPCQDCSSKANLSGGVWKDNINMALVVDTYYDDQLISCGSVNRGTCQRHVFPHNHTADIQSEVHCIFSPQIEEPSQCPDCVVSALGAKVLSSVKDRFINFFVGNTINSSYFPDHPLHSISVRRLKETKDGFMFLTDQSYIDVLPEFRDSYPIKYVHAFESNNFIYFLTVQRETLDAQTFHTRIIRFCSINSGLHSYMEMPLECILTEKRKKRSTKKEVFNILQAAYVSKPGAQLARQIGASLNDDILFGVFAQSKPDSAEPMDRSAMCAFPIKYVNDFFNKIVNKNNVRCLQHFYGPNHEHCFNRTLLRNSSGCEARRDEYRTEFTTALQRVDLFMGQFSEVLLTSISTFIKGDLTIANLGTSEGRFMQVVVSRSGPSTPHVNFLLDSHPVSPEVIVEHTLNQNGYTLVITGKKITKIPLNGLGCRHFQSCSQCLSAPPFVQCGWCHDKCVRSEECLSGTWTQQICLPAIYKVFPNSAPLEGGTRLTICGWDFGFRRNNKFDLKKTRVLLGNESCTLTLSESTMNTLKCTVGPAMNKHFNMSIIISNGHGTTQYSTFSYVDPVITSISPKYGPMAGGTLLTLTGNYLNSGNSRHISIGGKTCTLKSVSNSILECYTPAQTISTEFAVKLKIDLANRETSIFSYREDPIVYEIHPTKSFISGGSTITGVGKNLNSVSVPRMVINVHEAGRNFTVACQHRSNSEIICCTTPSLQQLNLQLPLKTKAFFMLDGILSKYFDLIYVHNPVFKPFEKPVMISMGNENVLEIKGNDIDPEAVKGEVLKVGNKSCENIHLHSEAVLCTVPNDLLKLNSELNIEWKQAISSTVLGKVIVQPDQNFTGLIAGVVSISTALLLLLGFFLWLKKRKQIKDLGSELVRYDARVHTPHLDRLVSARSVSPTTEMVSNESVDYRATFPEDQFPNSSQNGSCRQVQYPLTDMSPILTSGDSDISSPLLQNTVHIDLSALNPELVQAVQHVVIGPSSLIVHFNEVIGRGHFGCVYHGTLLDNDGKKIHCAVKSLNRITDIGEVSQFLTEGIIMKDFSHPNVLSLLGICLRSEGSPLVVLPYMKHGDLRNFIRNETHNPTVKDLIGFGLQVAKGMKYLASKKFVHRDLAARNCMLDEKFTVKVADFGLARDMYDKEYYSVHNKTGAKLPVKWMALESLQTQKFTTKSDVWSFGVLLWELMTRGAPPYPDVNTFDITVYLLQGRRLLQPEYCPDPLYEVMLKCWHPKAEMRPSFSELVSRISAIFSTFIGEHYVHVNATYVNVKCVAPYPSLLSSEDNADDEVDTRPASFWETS
Description: The c-Met protein was prepared with a diluent to a final concentration of 2 μg/ml, and added to a microplate at 100 μl per well, overnight at 4° C. The solution in the well was discarded, and the plate was washed three times with PBST. The plate was added with a blocking solution at 300 μl/well and incubated at 37° C. for 2 h. The solution in the well was discarded, and the plate was washed three times with PBST. AAJ8D6 antibody and ABT-700 (i.e., telisotuzumab, its sequence information can be found at https://extranet.who.int/soinn/mod/page/view.php?id=137&inn n=10366, the same below) were diluted to 9 concentrations, added to the 96-well plate and incubated for 2 h. The solution in the well was discarded, and the plate was washed three times with PBST. HRP detection antibody was prepared by adding diluent at a dilution of 1:5000, added at 100 μl per well, and incubated at 37° C. for 1 h. The solution in the well was discarded, and the plate was washed three times with PB ST. The plate was added with TMB color developing solution, incubated at room temperature for 2 min, and then added with Elisa stop solution.

[2] = combined administration group (with erlotinib)
[3] = single administration cohort, c-Met-positive NSCLC

Row | EC50 (c-Met protein) [ng/mL] | Substance | dose at which well tolerated (c-Met-positive NSCLC; NSCLC patients) [mg/kg] | patients with partial remission (c-Met-positive NSCLC; combined administration group (with erlotinib), 1 remains to be confirmed) | patients under control (c-Met-positive NSCLC; combined administration group (with erlotinib), after 12 weeks of treatment) [%] | adverse reaction: nausea, patients (c-Met-positive NSCLC; [2]) [%] | adverse reaction: neuralgia, patients (c-Met-positive NSCLC; [2]) [%] | adverse reaction: fatigue, patients (c-Met-positive NSCLC; [3]) [%] | adverse reaction: nausea (first listed), patients (c-Met-positive NSCLC; [3]) [%] | adverse reaction: nausea (listed a second time), patients (c-Met-positive NSCLC; [3]) [%] | treatment-related deaths (c-Met-positive NSCLC; single administration group and combined administration group) | patients under control (c-Met-positive NSCLC; single administration group, after 12 weeks of administration) [%] | patients who experienced partial remission (c-Met-positive NSCLC; single administration group) | patients who experienced partial remission ([1]; NSCLC patients with H-score ≥150) | tolerated dose ([1]; every three weeks) [mg/kg] | most frequently occurring toxicity: decreased appetite ([1]; in vivo) [%] | most frequently occurring toxicity: diarrhea ([1]; in vivo) [%] | most frequently occurring toxicity: vomiting ([1]; in vivo) [%]
1 | – | ABBV-399 | 2.7 | 4/13 | 76.9 | 23.1 | 46.2 | 43.8 | 37.5 | 18.8 | no treatment-related deaths | 56.3 | 3/16 | about 19% | 2.7 | 13 | 10 | 13
2 | 1.33 | ABT-700: competitor anti-c-Met antibody, i.e. telisotuzumab | – | – | – | – | – | – | – | – | – | – | – | – | – | – | – | –
